Experimental data as given in WO2025083273A1 (dated 2025).

T1: DR3-8i (human)
T1 construct: also called purified monomeric DR3-8i antigen protein
T1 chain: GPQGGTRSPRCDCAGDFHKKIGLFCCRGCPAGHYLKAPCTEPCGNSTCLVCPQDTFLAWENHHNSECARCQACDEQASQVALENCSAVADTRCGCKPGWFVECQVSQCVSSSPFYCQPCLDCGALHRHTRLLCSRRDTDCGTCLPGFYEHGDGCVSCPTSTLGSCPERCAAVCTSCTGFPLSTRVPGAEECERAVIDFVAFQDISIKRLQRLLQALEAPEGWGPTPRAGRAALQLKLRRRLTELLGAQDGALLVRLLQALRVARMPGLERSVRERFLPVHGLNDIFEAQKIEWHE

T2: human DR3 (TNFRSF25) expressed on cells (human, UniProt Q93038 25-417)
T2 sequence: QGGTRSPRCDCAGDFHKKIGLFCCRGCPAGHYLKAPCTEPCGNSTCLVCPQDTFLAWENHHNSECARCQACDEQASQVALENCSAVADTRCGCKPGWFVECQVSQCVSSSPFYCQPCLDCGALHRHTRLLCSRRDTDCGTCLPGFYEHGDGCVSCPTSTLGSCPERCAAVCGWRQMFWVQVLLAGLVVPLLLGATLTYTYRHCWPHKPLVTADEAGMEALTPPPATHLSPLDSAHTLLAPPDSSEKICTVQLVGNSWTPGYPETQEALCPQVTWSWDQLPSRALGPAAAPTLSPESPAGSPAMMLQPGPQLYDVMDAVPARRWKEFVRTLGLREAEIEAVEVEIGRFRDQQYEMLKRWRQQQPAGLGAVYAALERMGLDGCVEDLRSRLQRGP


How the values were obtained:
DR3-8i [1] = target: T1, DR3-8i; assay: BLI, IgG captured on protein A, DR3-8i in solution; Experiment 1
[2] = target: T2, human DR3 (TNFRSF25) expressed on cells; assay: cell-based or functional assay
DR3-8i [3] = target: T1, DR3-8i; assay: BLI, IgG captured on protein A, DR3-8i in solution; Average
DR3-8i [4] = target: T1, DR3-8i; assay: BLI, IgG captured on protein A, DR3-8i in solution; Experiment 2

Row | Binder | Kd (DR3-8i [1]) [nM] | EC50 (pM), DR3 Jurkat reporter [2] [pM] | Signal (FLU) [2] [FLU] | Kd (DR3-8i [3]) [nM] | Kd (DR3-8i [4]) [nM]
1 | VHg3/VLg12 (antibody, human IgG1, V domains shown, human IgG1) VH: EVQLVQSGGGLVKPGGSLRLSCAASGFKFSSYAMSWVRQAPGKGLEWLSTISDGDSYSYFPDSVKDRFIISRDNAKNSLYLQMNSLRVEDTGVYYCARDRIYGSVQYYAMDYWGQGTLVTVSS VL: EIVLTQSPATLSLSPGERATLSCRASESVEFSGTSLMQWYQQKPGQAPRLLIYAASNVESGIPARFSGSGSGTDFTLTISSLEPEDFAVYYCQQSRKLPYTFGQGTKLEIK | 0.39 | 1480 | 2.6e+06 | 0.4 | 0.409
2 | VHg6/VLg12 (antibody, human IgG1, V domains shown, human IgG1) VH: QVQLQQSGGGLVQPGGSLRLSCAASGFTFSSYAMSWVRQAPGKGLEWVATISDGDSYSYFPDSVKDRFTISRDNARNSLYLQMNSLRAEDTAVYYCARDRIYGSVQYYAMDYWGRGTLVTVSS VL: EIVLTQSPATLSLSPGERATLSCRASESVEFSGTSLMQWYQQKPGQAPRLLIYAASNVESGIPARFSGSGSGTDFTLTISSLEPEDFAVYYCQQSRKLPYTFGQGTKLEIK | 0.227 | 134 | 2.47e+06 | 0.157 | 0.0876
3 | VHg10/VLg5 (antibody, human IgG1, V domains shown, human IgG1) VH: EVQLVESGGGLVQPGGSLRLSCAASGFTFSSYAMSWVRQAPGKGLEWVSTISDGDSYSYFPDSVKDRFTISRDNSKNTLYLQMNSLRAEDTAVYYCARDRIYGSVQYYAMDYWGQGTLVTVSS VL: EIVLTQSPGTLSLSPGERGTLSCRASESVEFSGTSLMQWYQQKPGQAPRLLIYAASNVESGIPDRFSGSGSETDFTLTISRLEPEDLAVYYCQQSRKLPYTFGQGTRLEIK | 0.233 | 634 | 3.08e+06 | 0.246 | 0.259
4 | VHg10/VLg12 (antibody, human IgG1, V domains shown, human IgG1) VH: EVQLVESGGGLVQPGGSLRLSCAASGFTFSSYAMSWVRQAPGKGLEWVSTISDGDSYSYFPDSVKDRFTISRDNSKNTLYLQMNSLRAEDTAVYYCARDRIYGSVQYYAMDYWGQGTLVTVSS VL: EIVLTQSPATLSLSPGERATLSCRASESVEFSGTSLMQWYQQKPGQAPRLLIYAASNVESGIPARFSGSGSGTDFTLTISSLEPEDFAVYYCQQSRKLPYTFGQGTKLEIK | 0.175 | 132 | 3.56e+06 | 0.181 | 0.188
5 | VHg3/VLg13 (antibody, human IgG1, V domains shown, human IgG1) VH: EVQLVQSGGGLVKPGGSLRLSCAASGFKFSSYAMSWVRQAPGKGLEWLSTISDGDSYSYFPDSVKDRFIISRDNAKNSLYLQMNSLRVEDTGVYYCARDRIYGSVQYYAMDYWGQGTLVTVSS VL: DIQMTQSPSSLSASVGDRVTITCRASESVEFSGTSLMQWYQQKPGKAPKLLIYAASNVESGVPSRFSGSGSGTDFTFTISSLQPEDIATYYCQQSRKLPYTFGQGTKLEIK | 0.464 | 1770 | 2.66e+06 | 0.427 | 0.389
6 | VHg6/VLg2 (antibody, human IgG1, V domains shown, human IgG1) VH: QVQLQQSGGGLVQPGGSLRLSCAASGFTFSSYAMSWVRQAPGKGLEWVATISDGDSYSYFPDSVKDRFTISRDNARNSLYLQMNSLRAEDTAVYYCARDRIYGSVQYYAMDYWGRGTLVTVSS VL: DIQLTQSPSSLSASVGDRVTITCRASESVEFSGTSLMQWYQQKAGLAPKLLIYAASNVESGVPSRFSGSGSGTDFTLTISSLQPEDFGTYYCQQSRKLPYTFGQGTRLEIK | 0.227 | 118 | 2.44e+06 | 0.193 | 0.159
7 | VHg1/VLg2 (antibody, human IgG1, V domains shown, human IgG1) VH: QVQLVQSGGGLVQPGGSLRLSCAASGFTFSSYAMSWVRQAPGKGLEWVSTISDGDSYSYFPDSVKDRFTISRDNSKNTLYLQMNSLRAEDTSVYYCARDRIYGSVQYYAMDYWGQGTLVTVSS VL: DIQLTQSPSSLSASVGDRVTITCRASESVEFSGTSLMQWYQQKAGLAPKLLIYAASNVESGVPSRFSGSGSGTDFTLTISSLQPEDFGTYYCQQSRKLPYTFGQGTRLEIK | 0.316 | 336 | 2.44e+06 | 0.159 | 0.00202
